{"source": "patent US20240309090A1", "about": "“MODULATION OF ANDROGEN SIGNALING TO INNATE IMMUNE KILLING OF PROSTATE CANCER” (Brown University, priority 2023, published 2024)", "key": {"[1]": {"test_system": "PC3 cell line", "assay": "Flow cytometry of HLA-E surface expression on AR-negative PC3", "type": "cell-based", "settings": "for surface expression of HLA-E: PC3, DHT 30 nM, vorinostat 0.3 μM, panobinostat 3 nM, 48 h", "text": "(§1) To evaluate the modulation of the androgen receptor and tumor HLA-E expression, we astably transduced AR negative cell lines PC3 and DU145 with an Androgen Response Element (ARE) GFP reporter (FIG. 16H). […] Using AR+ constructed cell lines, PC3 and DU145, we sought to determine the dependence of HLA-E expression and possible modulation by AR. […] Although potential therapies targeting immune enhancement are being explored, the expression of exhaustion markers such as PD-1, NKG2A, and potential engaging ligands that diminish their cytotoxic function limits their application. Exploring these factors with new combination approaches, such as ARi and anti-NKG2A, and understanding the modulation of its targets upon treatment is key in overcoming immune-resistant scenarios, especially in prostate cancer.\nExperiments were conducted with noncytotoxic doses of vorinostat (0.3 μM) and panobinostat (3 nM).\n(§2) PCa cells were plated at a density of 3×10^5 cells per well of a 6-well plate and adhered overnight. […] After treatment, cells were trypsinized, stained, and incubated (Cell Staining Buffer SouthernBiotech #0225-01S) with the corresponding antibody for 45-60 min at 4° C. Viability dye was added with each run. NK-92 cells and patient-derived cells were stained similarly. Markers used for experiments included: Thermofisher HLA-E Monoclonal Antibody (3D12HLA-E), Alexa Fluor™ 488, eBioscience™, CD274 (PD-L1, B7-H1) Monoclonal Antibody (MIH1), eFluor™ 450, eBioscience™, Cell Signaling PD-1 (D4W2J) XPR Rabbit mAb, SYTOX™ Orange Dead Cell Stain, for flow cytometry, BioLegend APC anti-human CD159a (NKG2A) Antibody #375108, BioLegend APC anti-human CD69 Antibody #310909, BioLegend Alexa Fluor® 647 anti-human CD137 (4-1BB) [4B4-1] #309823. For staining of the patient-derived PBMCs and subsequent NK cell characterization, the following antibodies were used: BioLegend Anti-Perforin Mouse Monoclonal Antibody (PerCP Cy5.50, clone: dG9) #308113, BioLegend Anti-Granzyme B Mouse Monoclonal Antibody (FITC, clone: GB11) #515403, BioLegend Anti-CD56 Mouse Monoclonal Antibody (Alexa Fluor® 700, clone: 5.1H1) #362521, and BioLegend (PE anti-human CD45 Antibody) #304008."}, "[2]": {"test_system": "NK cells", "assay": "Flow cytometry of NKG2A and PD-1 surface expression on NK cells", "type": "cell-based", "experimental": "as §2\nMethods: PCa cell lines (LNCaP, 22Rv1 [ARv7 mutation], DU145[AR-], PC3 [AR-]) were cocultured with NK-92 cells and treated with ARi (enzalutamide [enza] and darolutamide [daro]) or in combination with anti-NKG2A antibody monalizumab. Immune cell-mediated tumor cell killing assays and multiplexed cytokine profiling were performed. NKc expression of NKG2A and PCa cells expression of HLA-E were investigated by flow cytometry. The AR-negative cell lines (PC3 and DU145) were stably transduced with a functional AR pathway to evaluate the modulation of HLA-E by AR. The activation status of peripheral blood NKc isolated from patients with PCa before and post-initiation of androgen deprivation therapy (ADT) was investigated by flow cytometry."}, "[3]": {"test_system": "DU145", "assay": "Flow cytometry of HLA-E surface expression on non-AR-transduced DU145", "type": "cell-based", "text": "as §1\nPCa cells were plated at a density of 3×10^5 cells per well of a 6-well plate and adhered overnight. […] After treatment, cells were trypsinized, stained, and incubated (Cell Staining Buffer SouthernBiotech #0225-01S) with the corresponding antibody for 45-60 min at 4° C. Viability dye was added with each run. NK-92 cells and patient-derived cells were stained similarly. […]"}, "[4]": {"test_system": "LNCaP cells", "assay": "Flow cytometry of HLA-E / PD-L1 surface expression on LNCaP", "type": "cell-based", "settings": "LNCaP, DHT 30 nM, vorinostat 0.3 μM, panobinostat 3 nM, 48 h", "experimental": "The effect of ARi on the NKG2A ligand, HLA-E, was investigated by flow cytometry on PCa cells treated with enza and daro.\nas §2\nThe effect of androgen pathway inhibitors in the expression of HLA-E, a negative and key negative modulator of NK cell function, was also performed using Flow Cytometry. PD-L1 expression levels were also measured. In advance, The NK cell immune checkpoint inhibitor monalizumab (targeting NKG2A and its ligand, HLA-E) was also combined with ARi."}, "[5]": {"test_system": "22Rv1", "assay": "Co-culture of 22Rv1 with NK-92 cells, immune-mediated tumor cell killing", "type": "cell-based", "settings": "22Rv1 + NK-92 1:1, enzalutamide 10 μM, FIG. 15B", "experimental": "(§3) They were co-treated with enzalutamide ([…]) or darolutamide (20 μM) for 48 h. Doses of AR inhibitors (ARi) used in the co-culture experiments were based on previous IC50 experiments. […] The immune-mediated effect of NK-92 on the PCa cell lines in the presence of enzalutamide (immune enhancement death) was normalized to baseline immune and tumor cell killing in each condition [(tumor cells+immune cells)-tumor baseline death=baseline immune death]. […] Cytokine analysis was performed to investigate the activation phenotype of NK cells when treated with ARi.\n(§4) Prostate cancer cell lines were dyed with the blue CMAC live-cell dye (Thermo Fisher Scientific #C2110, per manufacturer protocol). Blue-fluorescent cancer cells were plated at a density of 10,000 cells per well of a 48-well plate. NK-92 cells were dyed with green CMFDA (Cayman Chemical Company #19583, per manufacturer protocol). Green-fluorescent NK-92 cells were added to the blue-fluorescent cancer cells at a 1:1 ratio. Enzalutamide (10 μM), darolutamide (20 μM), and 1 μM ethidium homodimer (EthD-1) were added at the same time as the NK cells. After 24 hours of co-culture, images of live cancer cells, live NK cells, and dead cells were taken using a fluorescent microscope. The co-culture experiments were run with internal control conditions and as a single treatment. Normalization was performed after analysis to take baseline death conditions into each experiment run. […] Cell adhered over 24 h, and when patient-derived NK cells were added, a control well was trypsinized, and cells resuspended and counted to adjust a 1:1 ratio before treatment addition. […]\n(§5) Live cancer cells, NK cells, and dead cells were quantified using FIJI (Fiji Is Just ImageJ) software for images derived from fluorescent co-culture images. Images from the ImageXpress system were quantified using MetaXpress cytoplasmic/nuclear staining software. The percent of dead tumor cells in each well was quantified, and this percentage was normalized by subtracting baseline death from cancer cell-only wells, NK cell-only wells, or both."}, "[6]": {"test_system": "PC3", "assay": "Co-culture of GFP-expressing PC3 with patient-derived NK cells", "type": "cell-based, human", "text": "(§6) To validate an additive effect of ARi and monalizumab enhancing NK cell cytotoxicity, we performed a co-culture assay with GFP-labeled PCa cell lines (including ARi-sensitive LNCaP and ARi-resistant PC3) and patient-derived NK cells. The NK cells were negatively selected from whole blood from patients with metastatic prostate cancer before initiation of androgen deprivation therapy. The addition of enzalutamide or darolutamide enhanced the cytotoxicity of NK cells, and the combination of ARi with monalizumab potentiated immune killing (FIG. 15C-D).\n(§7) Prostate cancer cell lines were dyed with the blue CMAC live-cell dye (Thermo Fisher Scientific #C2110, per manufacturer protocol). Blue-fluorescent cancer cells were plated at a density of 10,000 cells per well of a 48-well plate. NK-92 cells were dyed with green CMFDA (Cayman Chemical Company #19583, per manufacturer protocol). Green-fluorescent NK-92 cells were added to the blue-fluorescent cancer cells at a 1:1 ratio. Enzalutamide (10 μM), darolutamide (20 μM), and 1 μM ethidium homodimer (EthD-1) were added at the same time as the NK cells. After 24 hours of co-culture, images of live cancer cells, live NK cells, and dead cells were taken using a fluorescent microscope. The co-culture experiments were run with internal control conditions and as a single treatment. Normalization was performed after analysis to take baseline death conditions into each experiment run. To optimize the high output of these experiments, a subset of co-cultures were performed using the ImageXpress® Micro Confocal High-Content Imaging. This analysis maintained the experiment conditions, drug concentrations, and the dyeing process. When GFP-labeled tumor cells were used for culture assays, they were added in a 1:1 ratio. Cell adhered over 24 h, and when patient-derived NK cells were added, a control well was trypsinized, and cells resuspended and counted to adjust a 1:1 ratio before treatment addition. The experiments with blocking antibodies were performed using the ImageXpress system. TRAIL blocking ab was purchased from Santa Cruz TRAIL Antibody (RIK-2): sc-56246, and IFN gamma blocking Monoclonal Antibody (NIB42, #6-7318-81) was purchased from Thermo Fisher. The blocking mAb was added when NK cells were combined with tumor cells.\n(§8) NK cells were isolated from patients harboring metastatic castration-sensitive prostate cancer using the MojoSort™ Human NK Cell Isolation Kit (#480053). Patients signed informed consent for IRB-approved research protocol number 2055-13, allowing the collection of peripheral blood samples. […] The untouched NK cells (CD56+, CD3−) were collected, and the purity of isolation was determined by flow cytometry using anti-CD56 (BioLegend 362503). […]"}, "[7]": {"test_system": "PC cell lines (LNCap, 22Rv1, DU145, PC3)", "assay": "Co-cultures of PC cell lines with NK cells (1:1), immune-mediated PC killing", "type": "cell-based", "experimental": "as §7\nas §5, with “both. A two-way ANOVA was used to calculate the interaction effect between drug treatment and NK cells.” for “both.”\nIn groups with a significant interaction effect, data was further normalized in the cancer cell+NK cells+drug treatment well by subtracting out death in the cancer cell+drug well. A one-way ANOVA and multiple comparison analysis with subsequent t-tests were used to calculate the statistical significance of the difference between this group and the cancer cell+NK cell well. GraphPad Prism Version 9.5.1 was used for statistical analysis.\nWe conducted cell viability assays to investigate the effect of Enza and Daro on PC cells (LNCap, 22Rv1 [ARv7 mutation], DU145, PC3 [AR-]) and NK-92 cells. We performed co-culture experiments with PC and NK cells in a 1:1 ratio and analyzed immune cell-mediated tumor cell killing (ImageXpress Confocal HT). Cytokine profiling (Luminex 200) of culture supernatants was performed following treatment with ARi−/+ and anti-IFN-γ antibodies. In vivo studies were performed in NCr Nude mice harboring subcutaneous PC tumors treated orally with Daro (50 mg/kg/bid) and Enza (30 mg/kg/bid) for 4 weeks.\nWe performed ATP-based (CellTiter-Glo) viability assays to investigate the effect of Enzalutamide and Darolutamide on PC cell lines (LNCap, 22Rv1 [ARv7 mutation], DU145, PC3 [AR-]) and NK-92 cells. We performed co-culture experiments with PC and NK cells at a 1:1 ratio throughout 4 h, 6 h, 12 h, 24 h, and 48 h periods. We analyzed immune cell-mediated tumor cell killing in the presence of Enza and Darolutamide (ImageXpress Confocal HT). Western Blotting was performed to evaluate different protein expression levels and their regulation related to sensitivity in mediating immune-mediated cell killing (apoptotic family). […]"}, "[8]": {"test_system": "LNCaP", "assay": "Co-culture of LNCaP with NK-92 cells, immune-mediated tumor cell killing", "type": "cell-based", "settings": "LNCaP + NK-92 1:1, enzalutamide 10 μM, FIG. 15A", "experimental": "as §3, §4, §5"}, "[9]": {"test_system": "LNCaP", "assay": "Co-culture of GFP-expressing LNCaP with patient-derived NK cells", "type": "cell-based, human", "text": "as §6, §7, §8"}}, "data": [{"molecule": "C[C@]12CCC(=O)C[C@@H]1CC[C@@H]1[C@@H]2CC[C@]2(C)[C@@H](O)CC[C@@H]12", "note": "[DHT, dihydrotestosterone]", "values": [{"measurement": "surface expression of HLA-E", "setting": "[1]", "result": "did not alter"}, {"measurement": "HLA-E expression", "setting": "[1]; non-AR-transduced PC3", "result": 11.28, "unit": "%"}, {"measurement": "surface expression of NKG2A", "setting": "[2]", "result": "reversed"}, {"measurement": "surface expression of PD-1", "setting": "[2]; MFI", "result": "reversed"}, {"measurement": "HLA-E expression", "setting": "[3]", "result": 1.84, "unit": "%"}]}, {"molecule": "O=C(CCCCCCC(=O)Nc1ccccc1)NO", "note": "[vorinostat]", "values": [{"measurement": "expression of HLA-E upon DHT treatment with HDACi", "setting": "[4]", "result": "did not change significantly"}, {"measurement": "surface expression of HLA-E", "setting": "[1]", "result": "did not change"}]}, {"molecule": "monalizumab (antibody, chains of the INN, looked up, V domains shown) VH: QVQLVQSGAEVKKPGASVKVSCKASGYTFTSYWMNWVRQAPGQGLEWMGRIDPYDSETHYAQKLQGRVTMTTDTSTSTAYMELRSLRSDDTAVYYCARGGYDFDVGTLYWFFDVWGQGTTVTVSS VL: DIQMTQSPSSLSASVGDRVTITCRASENIYSYLAWYQQKPGKAPKLLIYNAKTLAEGVPSRFSGSGSGTDFTLTISSLQPEDFATYYCQHHYGTPRTFGGGTKVEIK", "values": [{"measurement": "NK cell killing of PCa cells (immune enhancement)", "setting": "[5]", "result": 18.29, "unit": "%"}, {"measurement": "killing of PCa cells by patient-derived NK cells (in words)", "setting": "[6]; GFP PC3, 1:1, 24 h, monalizumab in combination with enza and daro", "result": "potentiated"}, {"measurement": "median number of cells in co-culture", "setting": "[6]; PC3 and NK cells, monalizumab added to darolutamide or enzalutamide, FIG. 3A", "result": "decreases"}, {"measurement": "immune-mediated NK cell killing of PCa cells (in words)", "setting": "[7]; co-culture PCa + NK-92 cells", "result": "did not enhance"}, {"measurement": "ARi immune enhancement effect", "setting": "[7]; co-cultures of PC cell lines and NK cells with Enzalutamide (API), [T] plus monalizumab", "result": 43.92, "unit": "%"}, {"measurement": "NK cell killing of PCa cells (immune enhancement)", "setting": "[8]", "result": 19.89, "unit": "%"}, {"measurement": "killing of PCa cells by patient-derived NK cells (in words)", "setting": "[9]; GFP LNCaP, 1:1, 24 h, monalizumab in combination with enza and daro", "result": "potentiated"}, {"measurement": "median number of cells in co-culture", "setting": "[9]; LNCaP and NK cells, monalizumab added to darolutamide or enzalutamide, FIG. 3B", "result": "decreases"}]}]}
